Patent US20230348616A1 (MIE UNIVERSITY, published 2023)
Substitutions are numbered along the chain they refer to.

B1: NYA-0060 (scFv, V domains shown)
VH: EVQLVESGGGVVQPGRSLTPSCSASGFSIRSYDIHWVRLAPGKGLEWVATISYDGSQKYFADSVKGRFTIFRDESENMVYLQMSGLRVEDTAVYHCARGSSGHYEAFDIWGQGTMVTVSS
VL: QSVLTQPPSVSAAPGQKVTISCSGSSSNIGNNYVSWYQQLPGTAPKLLIYDNNKRPSGIPDRFSGSKSGTSATLGITGLQTGDEADYYCGTWDSSLSAPWVFGGGTKVTVL
notes: NYA-0001 mutant from a phage library
B2: NYA-0082 (scFv, V domains shown)
VH: B1 VH with L39Q
VL: B1 VL with Q39R, T91S
notes: as for B1
B3: NYA-0068 (scFv, V domains shown)
VH: B1 VH with L39Q
VL: B1 VL with N32W
notes: as for B1
B4: NYA-0001 (scFv)
scFv: GEVQLVESGGGVVQPGRSLTPSCSASGFSIRSYDIHWVRQAPGKGLEWVATISYDGSQKYFADSVKGRFTIFRDESENMVYLQMSGLRVEDTAVYHCARGSSGHYEAFDIWGQGTMVTVSSGGGGSGGGGSGGGGSQSVLTQPPSVSAAPGQKVTISCSGSSSNIGNNYVSWYQQLPGTAPKLLIYDNNKRPSGIPDRFSGSKSGTSATLGITGLQTGDEADYYCGTWDSSLSAPWVFGGGTKVTVLGAAAGAGGDYKDDDDKGAAAHHHHHH
notes: also called NYA-0001 tag adduct; NY-R119 expressed in a cultured mammalian cell
B5: NYA-2027 (scFv)
scFv: B4 scFv with T227S
B6: NYC-0003 (scFv, not shown: small tags and cut ends)
scFv: EVQLLESGGGLVQPGGSLRLSCAASGFTFSTYQMSWVRQAPGKGLEWVSGIVSSGGSTAYADSVKGRFTISRDNSKNTLYLQMNSLRAEDTAVYYCAGELLPYYGMDVWGQGTTVTVSSGGGGSGGGGSGGGGSQSELTQPRSVSGSPGQSVTISCTGTSRDVGGYNYVSWYQQHPGKAPKLIIHDVIERSSGVPDRFSGSKSGNTASLTISGLQAEDEADYYCWSFAGSYYVFGTGTDVTVL
notes: also called 3M4E5 scFv; NYC-0003 tag adduct
B7: NYZ-1010 (bispecific antibody, human IgG1, lambda, L234A L235A)
chain 1: not shown
chain 2: not shown
light: NFMLTQPSSVSGVPGQRVTISCTGNTGNIGSNYVNWYQQLPGTAPKLLIYRDDKRPSGVPDRFSGSKSGTSASLAITGFQAEDEADYYCQSYSSGFIFGGGTKLTVLGQPKAAPSVTLFPPSSEELQANKATLVCLISDFYPGAVTVAWKADSSPVKAGVETTTPSKQSNNKYAASSYLSLTPEQWKSHRSYSCQVTHEGSTVEKTVAPTECS
B8: NYA-2060 (scFv)
scFv: GEVQLVESGGGLVQPGGSLRLSCAASGFSIRSYDIHWVRQAPGKGLEWVATISYDGSQKYYADSVKGRFTISRDESKNTLYLQMNSLRAEDTAVYHCARGSSGHYEAFDIWGQGTLVTVSSGGGGSGGGGSGGGGSQSVLTQPPSVSAAPGQKVTISCSGSSSNIGNWYVSWYQQLPGTAPKLLIYDNNKRPSGIPDRFSGSKSGTSATLGITGLQTGDEADYYCGTWDSSLSAPWVFGGGTKVTVLGAAAGAGGDYKDDDDKGAAAHHHHHH
notes: also called NYA-2060 tag adduct
B9: NYA-2061 (scFv)
scFv: GEVQLVESGGGLVQPGGSLRLSCAASGFSIRSYDIHWVRQAPGKGLEWVATISYDGSQKYYADSVKGRFTISRDESKNTLYLQMNSLRAEDTAVYHCARGSSGHYEAFDIWGQGTLVTVSSGGGGSGGGGSGGGGSQSVLTQPPSASGTPGQRVTISCSGSSSNIGNWYVSWYQQLPGTAPKLLIYDNNKRPSGVPDRFSGSKSGTSASLAISGLQSEDEADYYCGTWDSSLSAPWVFGGGTKLTVLGAAAGAGGDYKDDDDKGAAAHHHHHH
notes: also called NYA-2061 tag adduct

Experiments:
[1] = molecular target: T1, HLA-A*0201/β2-microglobulin/NY-ESO peptide complex (human, biotinylated with E. coli biotin ligase at the added recognition sequence (biotinylated form used in the ELISA)); experiment: screening of NYA-0001 mutant phage libraries
T1 construct: also called HLA/NY-ESO; HLA-A2/NY-ESO

1F = molecular target: T2, 1F; experiment: flow cytometry on peptide-pulsed T2 cells, scFv 100 nM
T2 construct: also called HLA-A2 / point-mutant NY-ESO peptide 1F complex on T2 cells
Protocol: (§1) The resultant was washed two times in the AIM-V medium containing 20% FBS, the concentration thereof was adjusted to an adequate level with PBS containing 5% FBS, the LIVE/DEAD Fixable Dead Cell Stain Kit (Thermo Fisher Scientific) was added thereto, and the resultant was allowed to stand at 4° C. for 30 minutes. The cells were washed 2 times in PBS containing 5% FBS, the washed cells were divided into two groups, the cells in PBS containing 5% FBS were seeded on a 96-well U-bottom microplate at 10⁵ cells/well, and the plate was subjected to centrifugation, followed by removal of the supernatant. Anti-HLA/NY-ESO scFv diluted to 100 nM with PBS containing 5% FBS was added at 25 μl/well to one of the divided cells, and the resultant was allowed to stand at 4° C. for 30 minutes. The cells were washed 2 times in PBS containing 5% FBS, Penta-His Alexa Fluor488 (QIAGEN) diluted in PBS containing 5% FBS was added at 25 μl/well, and the resultant was allowed to stand at 4° C. for 30 minutes. The cells were washed 2 times in PBS containing 5% FBS, Anti-mouse-IgG Alexa Fluor488 (Thermo Fisher Scientific) diluted in PBS containing 5% FBS was added at 25 μl/well, and the resultant was allowed to stand at 4° C. for 30 minutes. The cells were washed 2 times in PBS containing 5% FBS, immobilized with Mildform 10 N (FUJIFILM Wako Pure Chemical Corporation) overnight, and resuspended in PBS containing 5% FBS. […] The cells were washed 2 times in PBS containing 5% FBS, immobilized with Mildform 10 N (FUJIFILM Wako Pure Chemical Corporation) overnight, and resuspended in PBS containing 5% FBS. The cell suspensions were subjected to detection using a flow cytometer (CantoII, Becton Dickinson). […] The standardized gMFI indicating the binding affinity of each scFv standardized with the amount of the HLA/peptide complex on the T2 cells was determined in accordance with the following equation.

4A [2] = molecular target: T3, 4A; experiment: as above
T3 construct: also called HLA-A2 / point-mutant NY-ESO peptide 4A complex on T2 cells
Protocol: as §1

8A = molecular target: T4, 8A; experiment: as above
T4 construct: also called HLA-A2 / point-mutant NY-ESO peptide 8A complex on T2 cells
Protocol: as §1

6L [3] = molecular target: T5, 6L; experiment: as above
T5 construct: also called HLA-A2 / point-mutant NY-ESO peptide 6L complex on T2 cells
Protocol: as §1

3A [4] = molecular target: T6, 3A; experiment: as above
T6 construct: also called HLA-A2 / point-mutant NY-ESO peptide 3A complex on T2 cells
Protocol: as §1

5A [5] = molecular target: T7, 5A; experiment: as above
T7 construct: also called HLA-A2 / point-mutant NY-ESO peptide 5A complex on T2 cells
Protocol: as §1

2M [6] = molecular target: T8, 2M; experiment: as above
T8 construct: also called HLA-A2 / point-mutant NY-ESO peptide 2M complex on T2 cells
Protocol: as §1

7F = molecular target: T9, 7F; experiment: as above
T9 construct: also called HLA-A2 / point-mutant NY-ESO peptide 7F complex on T2 cells
Protocol: as §1

9A [7] = molecular target: T10, 9A; experiment: as above
T10 construct: also called HLA-A2 / point-mutant NY-ESO peptide 9A complex on T2 cells
Protocol: as §1

5A [8] = molecular target: T11, 5A; experiment: flow cytometry, CD3e knockout T2 cells pulsed with 50 µM peptide, antibody at 100 nM, PE anti-human IgG; gMFI standardized to the HLA/peptide amount; DMSO-only cells 1.15
T11 construct: also called HLA-A2 / point-mutant NY-ESO peptide 5A complex on CD3e knockout T2 cells
Protocol: (§2) The cells were washed 2 times in PBS containing 5% FBS, PE conjugated F(ab′)2 Fragment Anti-Human IgG (Jackson Immuno Research Laboratories) diluted with PBS containing 5% FBS was added at 25 μl/well, and the resultant was allowed to stand at 4° C. for 30 minutes. The cells were washed 2 times in PBS containing 5% FBS, immobilized with Mildform 10 N (FUJIFILM Wako Pure Chemical Corporation) overnight, and resuspended in PBS containing 5% FBS. […] The cells were washed 2 times in PBS containing 5% FBS, immobilized with Mildform 10 N (FUJIFILM Wako Pure Chemical Corporation) overnight, and resuspended in PBS containing 5% FBS. The cell suspensions were subjected to detection using a flow cytometer (CantoII, Becton Dickinson). […] The standardized gMFI indicating the binding affinity of each Fc-conjugated anti-HLA-A2/NY-ESO-anti-CD3 bispecific molecule standardized with the amount of the HLA/peptide complex on the CD3e knockout T2 cells was determined in accordance with the following equation.

4A [9] = molecular target: T12, 4A; experiment: as above
T12 construct: also called HLA-A2 / point-mutant NY-ESO peptide 4A complex on CD3e knockout T2 cells
Protocol: as §2

9A [10] = molecular target: T13, 9A; experiment: as above
T13 construct: peptide added to CD3e knockout T2 cells at 50 µM; also called HLA-A2 / point-mutant NY-ESO peptide 9A complex on CD3e knockout T2 cells
Protocol: as §2

6L [11] = molecular target: T14, 6L; experiment: as above
T14 construct: also called HLA-A2 / point-mutant NY-ESO peptide 6L complex on CD3e knockout T2 cells
Protocol: as §2

3A [12] = molecular target: T15, 3A; experiment: as above
T15 construct: also called HLA-A2 / point-mutant NY-ESO peptide 3A complex on CD3e knockout T2 cells
Protocol: as §2

2M [13] = molecular target: T16, 2M; experiment: as above
T16 construct: also called HLA-A2 / point-mutant NY-ESO peptide 2M complex on CD3e knockout T2 cells
Protocol: as §2

Binder	binding result [1]	standardized gMFI (1F)	standardized gMFI (4A [2])	standardized gMFI (8A)	standardized gMFI (6L [3])	standardized gMFI (3A [4])	standardized gMFI (5A [5])	standardized gMFI (2M [6])	standardized gMFI (7F)	standardized gMFI (9A [7])	standardized gMFI (5A [8])	standardized gMFI (4A [9])	standardized gMFI (9A [10])	standardized gMFI (6L [11])	standardized gMFI (3A [12])	standardized gMFI (2M [13])
B1	binds															
B2	binds															
B3	binds															
B4		0.6	0.83	6.67	7.97	7.88	0.78	7.72	0.97	6.56						
B5		0.57	0.99	9.47	7.85	9.91	0.75	7.84	5.41	6.9						
B6		3.28	0.76	3.42	4.14	4.34	0.69	3.73	3.99	4.77						
B7											1.02	1.05	51.9	37.6	21.3	39.5
B8		0.52	0.73	6.18	7.94	5.51	0.7	6.93	2.51	9.48						
B9		0.54	0.59	5.22	7.13	4.73	0.66	7.17	2.04	9.16						
